Source: the supplement of paper PMC12042874
± gives the uncertainty stated by the source.

assay: amyloid nucleation score (Sup35N fusion, yeast selection) (log enrichment); library NNK3; higher = more nucleation; inactive = no reads after selection
Procedure, shortened: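 Psi-negative yeast expressed Sup35N fused to peptides of 20 random codons. They were induced 24 hours with 100 μM copper sulfate, grown 7 days at 30°C without adenine and uracil, and their plasmid inserts from input and output were Illumina-sequenced. The nucleation score is the DiMSum log enrichment of output over input reads, centred on the mode score of non-aggregating sequences. Sequences with under 100 input reads were excluded.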

| Substance | amyloid nucleation score |
| --- | --- |
| LHCSVSSQTELVPTENRGGW | inactive |
| WKCVLMTSATHMPQYPHGCG | inactive |
| LLNDCYIRNKGLPHDERVWG | inactive |
| RRYEFLGGTEGSARRLDSKP | inactive |
| MYLNNFAWRVTVWNIFVHAL | 0.512 ± 0.16 |
| LYNVYGSRA | inactive |
| HFGYSGFDYYICTRY | 0.049 ± 0.27 |
| FMTFPRASADRDFFSRVLHL | inactive |
| NVEMLFNNSHHSTDEDAWYD | inactive |
| YGFRRTACMCL | inactive |
| LGQRWHVMLVLMSVYIF | inactive |
| HFVVKV | 1.27 ± 0.089 |
| QARKDDDKAQNKCSR | inactive |
| KNDGTIVQM | inactive |
| VLSIDTDYKFIGHASDYASI | 0.959 ± 0.16 |
| FCLVGIFTCRGTLNTLLALH | inactive |
| IFGSAFFRYYLCITQFCEYS | inactive |
| ANVWPISPLSGGVRLWMFGR | inactive |
| TSVSKFKPVLHYNRTGSHGF | inactive |
| SMDCFYLSHCRYRPRVI | inactive |
| VWCRQITMMACMSVR | inactive |
| HNRLSQVTDQLGRLVSRSLR | inactive |

| Substance | amyloid nucleation score |
| --- | --- |
| MMADDVSLICGCGRQ | 1.01 ± 0.19 |
| SMKLLT | -0.254 ± 0.7 |
| SFRGTSARYFMLVGVLGIFV | -0.2 ± 1.2 |
| LMLIFRLNCG | 1.62 ± 0.097 |
| TLFVA | inactive |
| FTWSVHKVDEVCHLLETGDA | inactive |
| LREHWEELVLGFWFPKVCCF | inactive |
| IVESQRDASVLRSIPSIRIN | inactive |
| LRSKECIKMALKWLCKKYYW | inactive |
| YLIYCL | inactive |
| SLGRFDLMCHTKYLSTTVVF | inactive |
| ETYFAQWLNFL | inactive |
| ATNLWR | inactive |
| TLWAEYTNLSEKEIDDYIDL | inactive |
| KALVGKYFKMCRTCDRYFYC | -0.416 ± 0.98 |
| RNFGYIDSKLWP | inactive |
| AFAMRMTCSGLVNICHFAWL | 0.287 ± 0.38 |
| VLTFNKGFFGC | 1.26 ± 0.11 |
| WNYGTALMLRQIGSGFICIY | inactive |
| LGDYSLTE | inactive |
| DSWTAACAHSR | inactive |
| SEASQRLLYTMVWTAHTQVM | inactive |

| Substance | amyloid nucleation score |
| --- | --- |
| QKHNSIFMLAVCCYKSCKQ | 1.07 ± 0.084 |
| HTFYFYSMSSGFKRHETTSG | inactive |
| NSFLRVIVC | inactive |
| YSGSNITTHNVFNETGDWSG | inactive |
| PGWLPQGMDNNSLTAVCVTI | inactive |
| RACYLF | inactive |
| FDERRSRGPSKSMKGLLTTY | inactive |
| AISPNASTWTACTFYCMDSG | -0.027 ± 0.26 |
| ISWNLRGVVLLTYTICSWCI | inactive |
| PFGSSTRFIHVFYGAWGHSK | inactive |
| HKNEVKWFFFQPGKEMLGGR | inactive |
| VSFQD | inactive |
| LHRCSLSKNDSAQSMMLTGC | inactive |
| NLFSRIVHSGLRMSTNCILI | inactive |
| LFSQCSLITHG | inactive |
| VYLDFKGWFVMLSINLNQFY | inactive |
| VTCCLLFLDCGVGSRMMLGL | -0.356 ± 0.98 |
| RVIRHPAI | -0.461 ± 0.96 |
| MGWALIGSQSPYVCHNMFVR | inactive |
| NYWYITKERGSNLVWSNGDE | inactive |
| QLCLCRKATLMSPTRLLQRA | -0.41 ± 1.9 |
| QFKLHCYRGMVVNHSLMCDT | inactive |
